Experimental data from the DeepSol protein solubility set.

Assay: soluble on expression in E. coli; label from the status in PepcDB or PDB records

Soluble on expression in E. coli, not soluble:
MENPHEQVQANILSRIIGNVKRLNESVAILNQELVTINNRNKNLEIMGAICDNYHSSVQFNLEATNNKKPPL, MSLHQRILSEVEGHILSGDWPPGYRIPFEHELTEQYGCSRMTVNKALSELVKRGLIERRRKSGSYVSFPQVQSAVMEIHDVKREVQSLGLDYAYRLGERAVRKMRAGDEGRIDLPVSSRLLDVTCRHFAGGRVFCLEERVINLSAVPEAETETFETAAPGSWLLGKVPWSTAEHRIRAVAASRPTAQALEIAVGAACLVIERRTWSGGVPVTSVLLTYPGDRHELVAEFAPSAPA, MGSDKIHHHHHHMTQTTPQPDPSRLRDELVRLHGKASPEWDSLVRLDPRFVDAYLKFAGVPQRRNHLDDKTRAFIALAADACATQLYAPGVARHIERALSFGATREELIEVLELVSTIGIHTSNVGVPVLLEVLEEEGLRKGAPPLDERRQKLKAEFETNRGYWHPTWEGLLELDPDLFEAYVEFSSVPWRTGVLSPKIKEFMYCAFDASATHLYVPGLKLHIRNALRYGATAEELMELLEIVSVTGIHGAELGAPLLEAALKRSGAAAGEPHA, MLEGVIRESITKANAKALKKDGYLIANVYGKGIENVNGAFKLNPFIKYLKEKKHLIFPVKLGDKTFEVVVQEYQKNPVTNELIHVDLLAVTKGVKSKFKVPIKHQGTPVGLKNKGILMLSKKRISVECAPEHLPDHYLVDVAPLDVNESILVRDLEKHENVKILDHDSIAVIGVIKAK, MGSDKIHHHHHHMKKFLENSIHQAIKACFFFLGKLPKKKLFIFESFHGKQYSDNPRAIFEYIRDNCPEYQCIWAVKKGYEMPFVEENVPFVKRLSWRWLWLMPRAQYWVFNTRMPAWMYKNQTTIYIQTWHGTPLKKLGLDIETVKMPEHETESYKLEVIQEAKRWDYLISPNAYSTRVFRQAFHYEGEILEIGYPRNDLLVCENKDKIAFSVRNQLGLAANKKIILYAPTWRDDESIRKGAYRFTNHLPVEQLLEIDSSIVILTRLHYLIAESFDISAFGSRVIDVSSYPDINQLYLIADLLITDYSSVMFDFALTKKPMLFFMYDKEKYQNSTRGFYFDPTAILPGKIVTDTDSLVTSVKNVLFSKTEQEQRLYVQFFREFCLENQDATRQLISEILKR, MAENYQQAAKDIIQLIGMDNIISVTHCQTRLRFILKDHEQVDGKQLEKIDLVKGVFYNGGQYQVILGTGIVTKVYDEIEKLGINVVSKAEQTAI, MGSDKIHHHHHHMAVELRYDEEAVFLRRVNRFVVEVKSSRGVVRCHLMDTGRIDHLASPGRRGVLIAWLNRLGGKTVCRAQAFKTAGGVVAVVDSRVPNRLFAEAAPMVVGGDASIEAEREVFGSRLDFLISTGRGLWAVEVKGVNLSLDGVGLFPNAPSARAVKHLEVLARLAREGVKPLMAFVALRPDIRVFAPNYRVDRRFASLACTLLRRGLVGMVGIRVSIDLEPGVVRIRPVATAPVQCPPLQPGR, MYNVIGVRFKKAGKIYYFDPNGFHIEHDSCVIVETVRGVEYGQVVIANKQVDEHDVVLPLRKVIRVADDRDLLIVEENKQEALSAFDICQKKVIEHGLDMKLVDVEFTFDRNKVIFYFTADGRVDFRELVKDLASIFKTRIELRQIGVRDEAKMLGGIGPCGRMLCCSTFLGDFEPVSIKMAKDQNLSLNPTKISGLCGRLMCCLKYENDEYETAKEQLPDIGEMITTANGPAKVVGLNILERVLQVELINREKVIEYTWEELLEEGVVSAQTTDLEHHHHHH

Soluble on expression in E. coli, soluble:
MSEVLITGLRTRAVNVPLAYPVHTAVGTVGTAPLVLIDLATSAGVVGHSYLFAYTPVALKSLKQLLDDMAAMIVNEPLAPVSLEAMLAKRFCLAGYTGLIRMAAAGIDMAAWDALGKVHETPLVKLLGANARPVQAYDSHSLDGVKLATERAVTAAELGFRAVKTRIGYPALDQDLAVVRSIRQAVGDDFGIMVDYNQSLDVPAAIKRSQALQQEGVTWIEEPTLQHDYEGHQRIQSKLNVPVQMGENWLGPEEMFKALSIGACRLAMPDAMKIGGVTGWIRASALAQQFGIPMSSHLFQEISAHLLAATPTAHWLERLDLAGSVIEPTLTFEGGNAVIPDLPGVGIIWREKEIGKYLV, GPPTRRSDFRVLVSGLPPSGSWQDLKDHMREAGDVCYADVQKDGMGMVEYLRKEDMEYALRKLDDTKFRSHEGETSYIRVYPERS, MSLSEEILINITPMESRVAVVENGVLQEVHVERTQRRGIVGNIYKGRVVRVLPGMQAAFVDIGLERAAFIHAAEISNREGSAVESISALVHEGQALVVQVTKDPIGTKGARLTTHLSIPSRYLVYMPRTSHVGISLRIEDEVERERLKKVVADCVAAEGIEGQGGFILRTAAEGAGEDEILADIRYLRRLWDQIAAQIQTVGAPSVIYEDLSLAIRTLRDLVNPRIEKIRIDSRENFQKITSFVEELMPEISDRLEHYPGERPIFDLYGVEDEIQKALERKVLLKSGGYLIVDPTEAMTTIDVNTGAFVGHRNLEETIFKTNLEAATAIARQLRLRNLGGIIIIDFIDMEDEEHRRQVLRTLEKQLERDHAKTNIIGITELGLVQMTRKRTRESLVQILCEPCPCCQGRGMLKTAETTCYEIFREILREARAYQADSYLVLANQKVVDRLLDEESGNVADLEAFIGRTIKFQVEAMYSQEQYDVVLLEGGSHHHHHH, MRAQDLPPLPETPGVYLWKRGEEVLYVGKAKSLRARVKSYFHAEGKARRIAEEATGLDFIATRDEVEALLLEANLIKAHRPLYNVLLKDDKHYPFLKLTNEPFPTLLVVRRVEEDGAKYYGPFPEAGALRRIKTLIDRLFPLRKNSGYPMKRRRYPCLNYSMGRCLAPCVGKADPEAYQEVVRQVEAVLEGRVDGLLQELEAKMREAARRLEFERAAEIRDQMEALRAFFSTDQQAFDPEMGDLDFLGMARSGALAVVQLYQVRSGRILGRISRVVEKEEATDEEILWAFLRDHYLEASPLPPLVLLPFPLEDLESLAELLKRRAGRKVELRVPKKGEKARLLELAERNARLALETELKLRERRGEHPALKALQDLLGLPARPWRLEGYDISHLQGQARVFSIAVFEGGRPKRQEYRRMRLKAGNDDYAAMEEGVFRRYTGSLKDLPLPDLLLIDGGVGQVRAAARALERAGLRLPLVGLAKGEEVLVTPEGRELRLPLTHPALQLLIHLRDEAHQNGLRYHRKRRSEELFRVLQGIPGIGEKRRRLLLERYGGLRALKEAPLEELARLPGMSLEAARALKAALAEEEPA, SAEEKVKDEAMQIMGMFQILPRLVVFDLDYTLWPFYCECRSKREMPSMYPQAKGILSALKEKGIEMAIASRSPTSDIANTFLDKLNIKPMFVAKEIYSSWSHKTEHFQKIHTRTGVPFTAMLFFDDEDRNIKSVSKMGVTSILVGDGVTLGAFRQGLTEFTQNHNSIEKNKQVWRDKYSGKPTSSETDKD, MIKVRVPDFSDKKFSDRWRYCVGTGRLGLALQKEYIETLKYVKENIDFKYIRGHGLLCDDVGIYREDVVGDEVKPFYNFTYIDRIFDSFLEIGIRPFVEIGFMPKKLASGTQTVFYWEGNVTPPKDYEKWSDLVKAVLHHFISRYGIEEVLKWPFEIWNEPNLKEFWKDADEKEYFKLYKVTAKAIKEVNENLKVGGPAICGGADYWIEDFLNFCYEENVPVDFVSRHAYTSKQGEYTPHLIYQEIMPSEYMLNEFKTVREIIKNSHFPNLPFHITEYNTSYSPQNPVHDTPFNAAYIARILSEGGDYVDSFSYWTFSDVFEERDVPRSQFHGGFGLVALNMIPKPTFYTFKFFNAMGEEMLYRDEHMLVTRRDDGSVALIAWNEVMDKTENPDEDYEVEIPVRFRDVFIKRQLIDEEHGNPWGTWIHMGRPRYPSKEQVNTLREVAKPEIMTSQPVANDGYLNLKFKLGKNAVVLYELTERIDESSTYIGLDDSKINGY, MDSELKEEIPVHEEFILCGGAETQVLKCGPWTDLFHDQSVKRPKLLIFIIPGNPGFSAFYVPFAKALYSLTNRRFPVWTISHAGHALAPKDKKILTTSEDSNAQEIKDIYGLNGQIEHKLAFLRTHVPKDMKLVLIGHSIGSYFTLQMLKRVPELPVIRAFLLFPTIERMSESPNGRIATPLLCWFRYVLYVTGYLLLKPCPETIKSLLIRRGLQVMNLENEFSPLNILEPFCLANAAYLGGQEMMEVVKRDDETIKEHLCKLTFYYGTIDPWCPKEYYEDIKKDFPEGDIRLCEKNIPHAFITHFNQEMADMIADSLKDDLSKM, MGSKTKKSFTVLLAFIMSFSVTGCFDKREIDDLVNPIAIGFDKGSNHSVRMTLQIAIPTKVAGGGEGGGGGGGEESVSYTTVEAPSIYSGLNMINSYVSKQLNMSQIKVLVFSEELAREGIEKYINALMRGREFRPHSYVIVARGTGNAAERYLRAVEPELESNPAKYYEMLLSAYTYTGFTANTSLTNFYKNMVSESTQPLAVLADISKFEKSDDINMDNSSYQEKGREFPLEGDFKAGDMPKVGTIKSEVMGLAVFNGSKMVGELDGEETQLQLMLEGNFGYSYVTIPDPEAEDYVVLLNIKQNRKPKRKVEIVDEKPHIKVNIYLEADILSIQSGVNYESLEKVKILEDAAEKFFEKGFLRMLKKTAKEFKSDIAGFGKEMKGKFLTWDEWTNFNWIEKYPDSEFEVDVDLKIRRPGLMLRTYPAAGTEVGEE, MSLNTAMAINKPKKVNKVMNYKSCFDIIGPIMIGPSSSHTAGALAIGLAARKLFGGTPEKIVIKYYESFADTHKGHGTDFAIIGGILGLAADDANVTQSIELAEEQGIEIQFLEMSEESPVKHANTACVTLSDATHEIHLTGISVGGGTIEVKYIELDGFNVQLHGPLPILLVINQEEQAMQAFKDTLQKNNIQVNAVSRYVEGNQILFIFDLDSAPISSVKEQLFSLDDTSKIILLEGGSHHHHHH, MFSGFSSFGGGNGFVNMPQTFEEFFRCYPIAMMNDRIRKDDANFGGKIFLPPSALSKLSMLNIRYPMLFKLTANETGRVTHGGVLEFIAEEGRVYLPQWMMETLGIQPGSLLQISSTDVPLGQFVKLEPQSVDFLDISDPKAVLENVLRNFSTLTVDDVIEISYNGKTFKIKILEVKPESSSKSICVIETDLVTDFAPPVGYVEPDYKALKAQQDKEKKNSFGKGQVLDPSVLGQGSMSTRIDYAGIANSSRNKLSKFVGQGQNISGKAPKAEPKQDIKDMKITFDGEPAKLDLPEGQLFFGFPMVLPKEDEESAAGSKSSEQNFQGQGISLRKSNKRKTKSDHDSSKSKAPKSPEVIEID, MALRNVPFRSEVLGWDPDSLADYFKKLNYKDCEKAVKKYHIDGARFLNLTENDIQKFPKLRVPILSKLSQEINKNEERRSIFTRKPQVPRFPEETESHEEDNGGWSSFEEDDYESPNDDQDGEDDGDYESPNEEEEAPVEDDADYEPPPSNDEEALQNSILPAKPFPNSNSMYIDRPPSGKTPQQPPVPPQRPMAALPPPPAGRNHSPLPPPQTNHEEPSRSRNHKTAKLPAPSIDRSTKPPLDRSLAPFDREPFTLGKKPPFSDKPSIPAGRSLGEHLPKIQKPPLPPTTERHERSSPLPGKKPPVPKHGWGPDRRENDEDDVHQRPLPQPALLPMSSNTFPSRSTKPSPMNPLPSSHMPGAFSESNSSFPQSASLPPYFSQGPSNRPPIRAEGRNFPLPLPNKPRPPSPAEEENSLNEEWYVSYITRPEAEAALRKINQDGTFLVRDSSKKTTTNPYVLMVLYKDKVYNIQIRYQKESQVYLLGTGLRGKEDFLSVSDIIDYFRKMPLLLIDGKNRGSRYQCTLTHAAGYP, MSLSKRILSPLQNNGILGEFYGVIIRAIEENCGRLGMNVELKMLENFSESNGADGYIFIGGDLSEKTLKEIKSRKKPFVLVDHYIPGERVDCVISDGYDGAVYATNYLISKGFKRIVHVHGPLHPYGFKMRYDGYKDAMEKAGLMPRFYECDDTEEGTRKVIDIMLNSYGTPEAIFTSNDSIAFWVIKRLKEHNIKVPDDVSVIGFDDIVDAENFDPPLTTLRVFKYEMGCLACKRLHELLTGINPHPVRILVFTQFVKRKSTKEGHHHHHH
